{"source": "patent US20070020718", "proteins": {"B1": {"name": "HIF-1alpha specific prolyl-4-hydroxylase-2 (PHD-2) (protein)", "chain": "MANDSGGPGGPSPSERDRQYCELCGKMENLLRCSRCRSSFYCCKEHQRQDWKKHKLVCQGSEGALGHGVGPHQHSGPAPPAAVPPPRAGAREPRKAAARRDNASGDAAKGKVKAKPPADPAAAASPCRAAAGGQGSAVAAEAEPGKEEPPARSSLFQEKANLYPPSNTPGDALSPGGGLRPNGQTKPLPALKLALEYIVPCMNKHGICVVDDFLGKETGQQIGDEVRALHDTGKFTDGQLVSQKSDSSKDIRGDKITWIEGKEPGCETIGLLMSSMDDLIRHCNGKLGSYKINGRTKAMVACYPGNGTGYVRHVDNPNGDGRCVTCIYYLNKDWDAKVSGGILRIFPEGKAQFADIEPKFDRLLFFWSDRRNPHEVQPAYATRYAITVWYFDADERARAKVKYLTGEKGVRVELNKPSDSVGKDVF"}}, "target": "T1, F-P564 peptide", "T1 chain": "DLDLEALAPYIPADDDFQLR"}
{"protein": "B1", "values": [{"measurement": "prolyl hydroxylation of F-P564 peptide, mass analysis", "result": "the 564th proline group in F-P564 was hydroxylated by the addition of prolyl hydroxylase"}]}
